Source: paper PMC5387054, “Zinc-Dependent Transcriptional Regulation in Paracoccus denitrificans”

T1: Zur (Paracoccus denitrificans) (UniProt A1B9K9)
T1 sequence: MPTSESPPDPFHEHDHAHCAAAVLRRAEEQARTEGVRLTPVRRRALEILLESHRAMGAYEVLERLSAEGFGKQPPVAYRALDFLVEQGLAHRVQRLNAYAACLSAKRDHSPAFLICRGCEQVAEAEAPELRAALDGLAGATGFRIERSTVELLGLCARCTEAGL

T2: Zur (Paracoccus denitrificans, UniProt A1B9K9 1-164)
T2 sequence: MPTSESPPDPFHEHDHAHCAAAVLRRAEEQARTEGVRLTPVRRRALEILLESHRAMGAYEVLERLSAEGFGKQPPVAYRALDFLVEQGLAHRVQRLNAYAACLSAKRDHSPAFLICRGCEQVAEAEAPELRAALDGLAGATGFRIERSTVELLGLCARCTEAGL


How the values were obtained:
[1] = molecular target: T1, Zur (Paracoccus denitrificans); assay: EMSA; details: EMSA: 10 mM Tris pH 8.0, 10 mM NaCl, 100 mM K-glutamate, 50 mM KCl, 1 mM DTT, 1.07 ug/ml BSA, 0.1 uM DNA, 0-20 uM Zur, 25 uM ZnCl2, 100 uM EDTA; 30 min room …
[2] = molecular target: Paracoccus denitrificans zinc uptake regulator (Zur) (Paracoccus denitrificans PD1222); assay: SEC; Factor Xa cleavage reaction mixture applied to a Hi-Prep Sephacryl S-100 HR column, 20 mM Tris pH 8.0, 150 mM NaCl, calibrated with proteins of 6.5 to 75 kDa
Zur = molecular target: T2, Zur; assay: competition; probe zur/znuA 0.1 uM; 10 uM Zur, 25 uM Zn2+, 100 uM EDTA; 5 uM competitor; shift disrupted, not fully displaced; EMSA: 10 mM Tris pH 8.0, 10 mM NaCl, 100 mM K-glutamate, 50 mM KCl, 1 mM DTT, 1.07 ug/ml BSA, 0.1 uM DNA, 0-20 uM Zur, 25 uM ZnCl2, 100 uM EDTA; 30 min room temperature; 8% native PAGE at 4 C; details: protein: recombinant; tags: MBP (pMAL-c5X) removed by Factor Xa; chain copies: 2; blunt

Molecule	binding [1]	other results
GCCGCCCGCTGACCAGATTTCCGCCGGGACCAGCCTGCGCCCGTCCCGGCGCCCTCCCCCGAACCCCATCAAGGAGACTTTCCATGCTCAGACATCTCGCGGGCGCCAGCGCCCTTGCCCTGACCTT (double strand) [aztD promoter (negative control, 128 bp)]	binds more weakly	
AATCACAAAACCGGCGCCTCGGCATTTCCCCGCTGATGCTTTGCCCTCTCGCCGCGGGTCCTGCGGCTTTTCGGACGACCGGCGCGGCATGGCTTGCCGTTCCGGTTTAGTAATGTAATAACATCACCAAAATATCGAGTCCGCTATCCAGTGATGCCCAGAACC (double strand) [aztA promoter]	binds	
Paracoccus denitrificans zinc uptake regulator (Zur) (natural protein)		stoichiometry N [2]: 2
CGGCAAGGACAAGGGAAGAAGGTCGGATCATGGCGAGACTCACTTGCGGAAACGCCAAGGTTATTTATGTTATATCGTAACCCGTCAAGCAAAAATGTAACGATATAACATCATGCCCACTTCGGAATCCCCGCCTGACCCGTTTCACG (double strand) [zur/znuA promoter (149 bp)]	binds	
AAGAGAGGGTTGAGCCTGCCCGGTAAAGGGCCGGGCGGGATGATCCGCCAGGCGCATGGGCGAAGCCCTCTTGCATCCCCGGGTGGGTAATATAATAACATAACAAAATCTCCGAGGATAACGCTCATGCTCTGCAAACTGCTCGCTT (double strand) [pden1341 promoter]	binds	
specific competitor (zur/znuA), 59 bp (dsDNA) DNA 1: GGGCATGATGTTATATCGTTACATTTTTGCTTGACGGGTTACGATATAACATAAATAAC DNA 2: GTTATTTATGTTATATCGTAACCCGTCAAGCAAAAATGTAACGATATAACATCATGCCC		binding result (Zur): binds
